Assay results from publication PMC5399792.

Tested on: Nc1nc2c(ncn2[C@@H]2O[C@H](COP(=O)(O)O[C@H]3[C@@H](O)[C@H](n4cnc5c(N)ncnc54)O[C@@H]3CO)[C@@H](O)[C@H]2O)c(=O)[nH]1
Experiment: purified protein, by the assay type
Settings: pH 7.4; 24.0 °C

influenza B polymerase initiating RNA synthesis at the vRNA promoter (vPol) (Influenza B virus (B/Memphis/13/2003))
Km: 58 ± 18 µM
